Test results from US20200339657A1, “PEPTIDES AND COMBINATION THEREOF FOR USE IN THE IMMUNOTHERAPY AGAINST CANCERS” (Immatics Biotechnologies GmbH, priority 2017, published 2020).
Values belong to the substance of their own block, whether it stands above or below them.

Legend:
CD8+ T cells = test: In vitro immunogenicity: T-cell priming with aAPCs loaded with peptide/MHC and anti-CD28, multimer readout; assay type: cell-based, human
HLA-A*01:01 = HLA-A*01:01 (Homo sapiens, UniProt P04439, A114D/A174V/A182V/D101N/D185E/E176A/E190D/L180R/Q94H/R68K/S129P/T187R/V100A/V91M/W191G); test: MHC binding assay (UV-ligand exchange, β2m ELISA); conditions: peptide exchange yield
HLA-A*24:02 = HLA-A*24:02 (Homo sapiens, UniProt P04439, D101N/D140Y/D185E/E176V/E190D/F33S/G103R/G107R/I119L/I121M/I306V/K335N/L105A/L180Q/L300P/N151K/N90K/Q86E/Q94H/R106L/R138H/R89G/T104I/T345S/V100E/W191G/Y123F); test: MHC binding assay (UV-ligand exchange, β2m ELISA); conditions: peptide exchange yield, binding to HLA-A*24:02
HLA-B*07:02 = HLA-B*07:02 (Homo sapiens, UniProt P01889); test: MHC binding assay (UV-ligand exchange, β2m ELISA); conditions: peptide exchange yield, binding to HLA-B*07:02

- Peptide exchange (HLA-A*01:01): “+++” (>50 = +++)
Substance: 1 (RSDPVTLDV; listed as Homo sapiens) [compound 1]
- Wells positive [%] (CD8+ T cells; HLA A*01): “++” (20%-49% = ++)

- Peptide exchange (HLA-A*01:01): “+++” (>50 = +++)
Substance: 6 (VLDLSTNVY; listed as Homo sapiens) [compound 6]
- Wells positive [%] (CD8+ T cells; HLA A*01): “++” (20%-49% = ++)

- Peptide exchange (HLA-A*01:01): “+++” (>50 = +++)
Substance: 20 (STDEITTRY; listed as Homo sapiens) [compound 20]
- Wells positive [%] (CD8+ T cells; HLA A*01): “+” (<20% = +)

- Peptide exchange (HLA-A*01:01): “+” (>10% = +)
Substance: 24 (YTHHLFIFY; listed as Homo sapiens) [compound 24]
- Wells positive [%] (CD8+ T cells; HLA A*01): “+” (<20% = +)

- Peptide exchange (HLA-A*01:01): “+++” (>50 = +++)
Substance: 28 (LTDYINANY; listed as Homo sapiens) [compound 28]
- Wells positive [%] (CD8+ T cells; HLA A*01): “+” (<20% = +)

- Peptide exchange (HLA-A*01:01): “++++” (>75% = ++++)
Substance: 31 (VTDLEMPHY; listed as Homo sapiens) [compound 31]
- Wells positive [%] (CD8+ T cells; HLA A*01): “+” (<20% = +)

- Peptide exchange (HLA-A*01:01): “++” (>20% = ++)
Substance: 33 (FADKIHLAY; listed as Homo sapiens) [compound 33]
- Wells positive [%] (CD8+ T cells; HLA A*01): “++” (20%-49% = ++)

- Peptide exchange (HLA-A*01:01): u+++” (>50 = +++)
Substance: 37 (LTDSFPLKV; listed as Homo sapiens) [compound 37]
- Wells positive [%] (CD8+ T cells; HLA A*01): “+++” (50%-69% = +++)

- Peptide exchange (HLA-A*24:02): “+++” (>50 = +++)
Substance: 113 (VWAKILSAF; listed as Homo sapiens) [compound 113]

- Peptide exchange (HLA-A*24:02): “+++” (>50 = +++)
Substance: 114 (KFLDSNIKF; listed as Homo sapiens) [compound 114]

- Peptide exchange (HLA-A*24:02): “++” (>20% = ++)
Substance: 115 (YFEEAANFL; listed as Homo sapiens) [compound 115]

- Peptide exchange (HLA-A*24:02): “+” (>10% = +)
Substance: 116 (LVLDYSKDYNHW; listed as Homo sapiens) [compound 116]

- Peptide exchange (HLA-A*24:02): “++++” (>75% = ++++)
Substance: 117 (NFLPPIIARF; listed as Homo sapiens) [compound 117]

- Peptide exchange (HLA-A*24:02): “+++” (>50 = +++)
Substance: 118 (TYISKTIAL; listed as Homo sapiens) [compound 118]

- Peptide exchange (HLA-A*24:02): “+++” (>50 = +++)
Substance: 120 (MYAKEFDLL; listed as Homo sapiens) [compound 120]

- Peptide exchange (HLA-A*24:02): “+++” (>50 = +++)
Substance: 121 (SYIEKVRFL; listed as Homo sapiens) [compound 121]

- Peptide exchange (HLA-A*24:02): “++” (>20% = ++)
Substance: 122 (KLYGMPTDFGF; listed as Homo sapiens) [compound 122]

- Peptide exchange (HLA-A*24:02): “+” (>10% = +)
Substance: 123 (RQYLAINQI; listed as Homo sapiens) [compound 123]

- Peptide exchange (HLA-A*24:02): “++++” (>75% = ++++)
Substance: 125 (IYGPKYIHPSF; listed as Homo sapiens) [compound 125]

- Peptide exchange (HLA-A*24:02): “+++” (>50 = +++)
Substance: 126 (TFQDKTLNF; listed as Homo sapiens) [compound 126]

- Peptide exchange (HLA-A*24:02): “++++” (>75% = ++++)
Substance: 127 (IFINLSPEF; listed as Homo sapiens) [compound 127]

- Peptide exchange (HLA-A*24:02): “+++” (>50 = +++)
Substance: 128 (SYTKVEARL; listed as Homo sapiens) [compound 128]

- Peptide exchange (HLA-A*24:02): “++” (>20% = ++)
Substance: 129 (VFLNQIYTQL; listed as Homo sapiens) [compound 129]

- Peptide exchange (HLA-A*24:02): “+++” (>50 = +++)
Substance: 130 (VYGDGHYLTF; listed as Homo sapiens) [compound 130]

- Peptide exchange (HLA-B*07:02): “++” (>20% = ++)
Substance: 143 (FELPTGAGLQL; listed as Homo sapiens) [compound 143]

- Peptide exchange (HLA-B*07:02): “++” (>20% = ++)
Substance: 144 (IPEPSAQQL; listed as Homo sapiens) [compound 144]
- Wells positive [%] (CD8+ T cells; HLA B*07): “+” (<20% = +)

- Peptide exchange (HLA-B*07:02): “+++” (>50 = +++)
Substance: 145 (RVPSYTLIL; listed as Homo sapiens) [compound 145]

- Peptide exchange (HLA-B*07:02): “+++” (>50 = +++)
Substance: 146 (SPGDKRLAA; listed as Homo sapiens) [compound 146]
- Wells positive [%] (CD8+ T cells; HLA B*07): “++” (20%-49% = ++)

- Peptide exchange (HLA-B*07:02): “+++” (>50 = +++)
Substance: 147 (SPIKVPLLL; listed as Homo sapiens) [compound 147]

- Peptide exchange (HLA-B*07:02): “++” (>20% = ++)
Substance: 148 (VPDGVSKVL; listed as Homo sapiens) [compound 148]
- Wells positive [%] (CD8+ T cells; HLA B*07): “+++” (50%-69% = +++)

- Peptide exchange (HLA-B*07:02): “++” (>20% = ++)
Substance: 149 (YPLTGDTRL; listed as Homo sapiens) [compound 149]

- Peptide exchange (HLA-B*07:02): “+++” (>50 = +++)
Substance: 150 (KPSSKALGTSL; listed as Homo sapiens) [compound 150]

- Peptide exchange (HLA-B*07:02): “++” (>20% = ++)
Substance: 151 (VVHPRTLLL; listed as Homo sapiens) [compound 151]

- Peptide exchange (HLA-B*07:02): “+++” (>50 = +++)
Substance: 152 (IPSRLLAIL; listed as Homo sapiens) [compound 152]

- Peptide exchange (HLA-B*07:02): “+++” (>50 = +++)
Substance: 153 (APAAVPSAPA; listed as Homo sapiens) [compound 153]

- Peptide exchange (HLA-B*07:02): “++” (>20% = ++)
Substance: 154 (GPGTRLSL; listed as Homo sapiens) [compound 154]

- Peptide exchange (HLA-B*07:02): “++” (>20% = ++)
Substance: 155 (FPYPYAERL; listed as Homo sapiens) [compound 155]
- Wells positive [%] (CD8+ T cells; HLA B*07): “+++” (50%-69% = +++)

- Peptide exchange (HLA-B*07:02): “+++” (>50 = +++)
Substance: 156 (HPQVVILSL; listed as Homo sapiens) [compound 156]
- Wells positive [%] (CD8+ T cells; HLA B*07): “++” (20%-49% = ++)

- Peptide exchange (HLA-B*07:02): “++” (>20% = ++)
Substance: 157 (SPSPGKDPTL; listed as Homo sapiens) [compound 157]

- Peptide exchange (HLA-B*07:02): “++” (>20% = ++)
Substance: 158 (VPERGEPEL; listed as Homo sapiens) [compound 158]

- Peptide exchange (HLA-B*07:02): “++” (>20% = ++)
Substance: 159 (FPAHPSLLL; listed as Homo sapiens) [compound 159]

- Peptide exchange (HLA-B*07:02): “+++” (>50 = +++)
Substance: 160 (RPAPADSAL; listed as Homo sapiens) [compound 160]

- Peptide exchange (HLA-B*07:02): “++” (>20% = ++)
Substance: 161 (NPYEGRVEV; listed as Homo sapiens) [compound 161]

- Peptide exchange (HLA-B*07:02): “++” (>20% = ++)
Substance: 162 (MPMISIPRV; listed as Homo sapiens) [compound 162]

- Peptide exchange (HLA-B*07:02): “++” (>20% = ++)
Substance: 163 (RPASSLRP; listed as Homo sapiens) [compound 163]

- Peptide exchange (HLA-B*07:02): “++” (>20% = ++)
Substance: 164 (ISTPSEVSTPL; listed as Homo sapiens) [compound 164]
- Wells positive [%] (CD8+ T cells; HLA B*07): “+” (<20% = +)

- Peptide exchange (HLA-B*07:02): “+++” (>50 = +++)
Substance: 165 (TPIAKVSEL; listed as Homo sapiens) [compound 165]

- Peptide exchange (HLA-B*07:02): “++” (>20% = ++)
Substance: 166 (HDPDVGSNSL; listed as Homo sapiens) [compound 166]

- Peptide exchange (HLA-B*07:02): “++” (>20% = ++)
Substance: 167 (YPSEVEHMF; listed as Homo sapiens) [compound 167]

- Peptide exchange (HLA-B*07:02): “++” (>20% = ++)
Substance: 168 (IPTDKLLVI; listed as Homo sapiens) [compound 168]

- Peptide exchange (HLA-B*07:02): “++” (>20% = ++)
Substance: 169 (FPTEVTPHAF; listed as Homo sapiens) [compound 169]

- Peptide exchange (HLA-B*07:02): “+++” (>50 = +++)
Substance: 170 (SPMWHVQQL; listed as Homo sapiens) [compound 170]
- Wells positive [%] (CD8+ T cells; HLA B*07): “++++” (>= 70% = ++++)

- Peptide exchange (HLA-B*07:02): “+++” (>50 = +++)
Substance: 171 (APKLFAVAF; listed as Homo sapiens) [compound 171]

- Peptide exchange (HLA-B*07:02): “+++” (>50 = +++)
Substance: 172 (KPAHYPLIAL; listed as Homo sapiens) [compound 172]
- Wells positive [%] (CD8+ T cells; HLA B*07): “+++” (50%-69% = +++)

- Peptide exchange (HLA-B*07:02): “++” (>20% = ++)
Substance: 173 (MVPSAGQLALF; listed as Homo sapiens) [compound 173]

- Peptide exchange (HLA-B*07:02): “+++” (>50 = +++)
Substance: 174 (VPSLQRLML; listed as Homo sapiens) [compound 174]

- Peptide exchange (HLA-B*07:02): “++” (>20% = ++)
Substance: 175 (HPIETLVDIF; listed as Homo sapiens) [compound 175]

- Peptide exchange (HLA-A*01:01): “++++” (>75% = ++++)
Substance: 242 (FSDKELAAY; listed as Homo sapiens) [compound 242]

- Peptide exchange (HLA-A*01:01): “++” (>20% = ++)
Substance: 243 (RSPNNFLSY; listed as Homo sapiens) [compound 243]

- Peptide exchange (HLA-A*01:01): “+++” (>50 = +++)
Substance: 244 (RSDPVTLNV; listed as Homo sapiens) [compound 244]

- Peptide exchange (HLA-A*01:01): “+++” (>50 = +++)
Substance: 245 (ITEKNSGLY; listed as Homo sapiens) [compound 245]
- Wells positive [%] (CD8+ T cells; HLA A*01): “+++” (50%-69% = +++)

- Peptide exchange (HLA-A*01:01): “++++” (>75% = ++++)
Substance: 246 (YSDLHAFYY; listed as Homo sapiens) [compound 246]

- Peptide exchange (HLA-A*01:01): “+++” (>50 = +++)
Substance: 247 (RSDPGGGGLAY; listed as Homo sapiens) [compound 247]
- Wells positive [%] (CD8+ T cells; HLA A*01): “+” (<20% = +)

- Peptide exchange (HLA-A*01:01): “+++” (>50 = +++)
Substance: 248 (YSHAAGQGTGLY; listed as Homo sapiens) [compound 248]

- Peptide exchange (HLA-B*07:02): “++” (>20% = ++)
Substance: 255 (LPDGSRVEL; listed as Homo sapiens) [compound 255]
- Wells positive [%] (CD8+ T cells; HLA B*07): “++++” (>= 70% = ++++)

- Peptide exchange (HLA-B*07:02): “+++” (>50 = +++)
Substance: 256 (LPALPQQLI; listed as Homo sapiens) [compound 256]

- Peptide exchange (HLA-B*07:02): “++” (>20% = ++)
Substance: 257 (SPLRGGSSL; listed as Homo sapiens) [compound 257]

- Peptide exchange (HLA-B*07:02): “++” (>20% = ++)
Substance: 258 (APSGTRVVQVL; listed as Homo sapiens) [compound 258]

- Peptide exchange (HLA-B*07:02): “++” (>20% = ++)
Substance: 259 (RPAVGHSGL; listed as Homo sapiens) [compound 259]
